{
  "source": "paper PMC4117790",
  "about": "“HRAS is silenced by two neighboring G-quadruplexes and activated by MAZ, a zinc-finger transcription factor with DNA unfolding property”",
  "binders": {"B1": {"name": "hras-2 quadruplex (structured_DNA)", "DNA": "CGGGGCGGGGCGGGGGCGGGGGCG"}, "B2": {"name": "hras-1 quadruplex (structured_DNA)", "DNA": "TCGGGTTGCGGGCGCAGGGCACGGGCG"}},
  "key": {"MAZ-GST [1]": {"target": "T1, MAZ-GST (UniProt P56270 1-477)", "T1 sequence": "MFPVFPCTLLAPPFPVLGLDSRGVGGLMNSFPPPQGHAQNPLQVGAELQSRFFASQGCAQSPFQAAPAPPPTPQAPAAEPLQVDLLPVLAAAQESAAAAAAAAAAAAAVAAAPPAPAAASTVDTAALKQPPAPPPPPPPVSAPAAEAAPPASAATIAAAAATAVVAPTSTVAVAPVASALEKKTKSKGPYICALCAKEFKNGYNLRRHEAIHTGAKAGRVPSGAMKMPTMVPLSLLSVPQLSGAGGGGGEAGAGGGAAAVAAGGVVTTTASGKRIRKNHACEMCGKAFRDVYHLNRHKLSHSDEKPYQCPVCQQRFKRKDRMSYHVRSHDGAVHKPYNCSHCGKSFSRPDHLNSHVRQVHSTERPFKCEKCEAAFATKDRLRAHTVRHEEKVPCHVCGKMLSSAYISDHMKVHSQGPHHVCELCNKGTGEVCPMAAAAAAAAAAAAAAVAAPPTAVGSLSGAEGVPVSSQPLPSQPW", "assay": "double-filter binding; 100 mM KCl, 50 uM Zn acetate; Hill n = 1.4 ± 0.2; EMSA/filter: 20 mM Tris-HCl pH 8, 8% glycerol, 100 uM MgCl2, 50 uM Zn acetate, 1 mM DTT, 2.5 ng/ul poly dIdC, 1 mM Na3VO4, 5 mM NaF, KCl as stated (100 mM for filter binding); EMSA gel 20 C, filter 4 C 30 min; FRET: 50 mM Tris-HCl pH 7.4, 50 uM Zn acetate, 50 mM KCl, 37 C", "conditions": "protein: recombinant; tags: GST; label: 32P; parallel intramolecular G4"}, "MAZ-GST [2]": {"target": "T1, MAZ-GST", "assay": "double-filter binding; 100 mM KCl, 50 uM Zn acetate; Hill n = 1.6 ± 0.3; EMSA/filter: 20 mM Tris-HCl pH 8, 8% glycerol, 100 uM MgCl2, 50 uM Zn acetate, 1 mM DTT, 2.5 ng/ul poly dIdC, 1 mM Na3VO4, 5 mM NaF, KCl as stated (100 mM for filter binding); EMSA gel 20 C, filter 4 C 30 min; FRET: 50 mM Tris-HCl pH 7.4, 50 uM Zn acetate, 50 mM KCl, 37 C", "conditions": "protein: recombinant; tags: GST; label: 32P; antiparallel intramolecular G4"}},
  "data": [
    {"binder": "B1", "values": [
      {"measurement": "Kd", "setting": "MAZ-GST [1]", "result": "207 ± 12", "unit": "nM"}
    ]},
    {"binder": "B2", "values": [
      {"measurement": "Kd", "setting": "MAZ-GST [2]", "result": "504 ± 84", "unit": "nM"}
    ]}
  ]
}
